The source of these data is patent US20230331827A1, “POTASSIUM CHANNEL INHIBITORS” (priority 2017, published 2023).

Assay [1] has as its system trypsin. The assay can be described thus: Phage TRF binding assay on immobilised biotinylated trypsin (monoclonal phage ELISA). How it is done: Phage display technology facilitates isolation of binders to any given target from large combinatorial repertoires based on proteins and peptides that can be presented on the surface of filamentous phage^105. In order to isolate functional knottin-antibody fusions from the KnotBody libraries multiple rounds of phage display selections on trypsin (cognate antigen for the EETI-II donor) were carried out. Phage particles were prepared by rescuing KnotBody libraries using trypsin cleavable helper phage ^102,106Two rounds of phage display selections were performed on 10 µg/ml biotinylated trypsin immobilised on Streptavidin (for Round-1) or Neutravidin (for round-2) coated Maxisorp™ immunotubes (Thermo Scientific, Cat No. 444202). In both rounds of selection, phage libraries were pre-incubated with streptavidin coated paramagnetic beads (Thermo Fisher Scientific, Cat. No. 11205D). These beads were removed prior to the addition the phage to the antigen tubes to limit the streptavidin binders entering the selection. Polyclonal phage preparations from round-2 selection outputs were analysed for trypsin binding using a time resolved fluorescence (TRF) binding assay. In this assay, polyclonal phage binding to biotinylated trypsin immobilised on neutravidin (Thermo Fisher Scientific, Cat. No 31000) coated Maxisorp™ plates (Thermo Scientific, Cat. No. 437111) was detected using a mouse anti-M13 antibody (GE Healthcare, Cat. No. 27-9420-01) followed by europium conjugated anti-mouse antibody (Perkin Elmer, Cat. No. AD0124).
In order to identify monoclonal KnotBodies with desired binding characteristics, 94 individual clones derived from 2 rounds of selection using EETI-II CDR1 or CDR2 libraries were picked into 96 well culture plates and phage were prepared from each clone. Methods for screening by monoclonal phage ELISA are known in the art^107. […] Clones with >3x binding signal above background were picked as positive clones and sequenced to identify unique clones. 14 and 42 unique binders were identified from EETI-II CDR1 and EETI-II CDR2 libraries respectively (Table 1). 18 binders from the EETI-II CDR2 library and 3 binders from the EETI-II-CDR1 library were chosen for further characterisation based on their VL and linker sequence diversity. These binders were assigned new clone identification numbers (Table 2).
The trypsin binding capability of EETI-II is attributed to proline (Pro3) and arginine (Arg4) residues present in its loop1 (GCPRILMRC; SEQ ID NO: 68). […] Monoclonal phage was prepared from the 21 selected clones and their mutant equivalents. […] Replacement of the trypsin-binding residues of EETI-II abolished the ability of all KnotBody clones to bind to trypsin (Table 3). In order to confirm that the loss of trypsin binding was not due to reduced expression or display of pIII fusion phage was prepared from 11 (randomly chosen) KnotBodies and their GlyAla variants were analysed on a western blot using an antibody which recognises the product of gene 3 (pIII) using an anti-pIII antibody (MoBiTec GmbH) (FIG. 6).
Bovine antibodies have been described with natural ultra-long VH CDR3s containing a solvent exposed double stranded antiparallel sheet approximately 20 A° in length (referred to as the stalk) presenting a folded domain stabilised by 3 disulfide bonds (referred to as the Knob)^10. Zhang and colleagues have shown that the Knob domains of these cow ultra-long VH CDR3 antibodies (ULVC-Ab) can be replaced with other folded proteins such as erythropoietin^13. In this example, we assess the ability of a cow ULVC-Ab to present functional knottin fusions on phage in comparison with a KnotBody. In order to create a Knottin-cow UCLA fusion, the sequence between the first and the last cysteines of the knob region of the Cow ULVC-Ab BLV1H12 was replaced with the sequence of the trypsin binding knottin; EETI-II (EETI-II cow ULVC-Ab). A gene fragment encoding this construct was synthesised (Integrated DNA technologies, Table 21). […]
On the technique in general: In an ELISA, binding on a coated surface is turned into a signal by an enzyme label.

Assay [2] deals with trypsin. The experiment in a line: KnotBody Fab TRF binding assay on biotinylated trypsin. Here is the method: In order to confirm the trypsin binding ability of KnotBodies in Fab format, purified proteins were tested for binding to trypsin using a TRF binding assay. In this assay binding of KnotBody Fabs ([…]) to biotinylated trypsin (immobilised on streptavidin coated Maxisorp™ plates) was detected using a mouse anti-CH1 antibody followed by a europium conjugated anti-mouse antibody (Table 4). 7 KnotBodies (KB_A04, KB_A01, KB_A05, KB_A07, KB_A08, KB_A10, KB_A12) were chosen for crystallisation. DNA prepared for these clones were transfected into 500 ml HEK-293F cells as described before. Expressed proteins were purified using CaptureSelect IgG-CH1 affinity matrix. Purified proteins were initially subjected to crystallisation trials using commercially available crystallisation screens (Supplier). Well-defined crystals were readily obtained for KB_A12 and KB_A05. Crystallisation conditions for these two clones were further optimised and the following condition was used to generate diffraction quality crystals: 0.1 M MES pH=6.5, 25 %w/v PEG MME 2000 and 0.1 M Tris.Cl, 50% PEG MME, 10 mM NiCl2. Complete diffraction data was collected on these crystals at 100 K under liquid nitrogen stream. Collected data was processed using PROTEUM2 software (Bruker). The crystal structure of the knottin-fused Fab antibodies was resolved using molecular replacement technique^109 using Phenix software v 1.8.1-1168^110. Resulting structure was further refined using Phenix.Refine^111. The templates for molecular replacement were downloaded from PDB website (www.rcsb.org/pdb, PDB codes: 3G04 for light chain and 3QOS for heavy chain). KnotBody KB_A12 and KB_A05 sequences are given below. An additional AlaSer sequence is introduced at the N terminus of the light chain from the Nhe1 site used in cloning.
In order to compare the performance of the KnotBodies with short and long linkers, purified Fabs were tested for binding to trypsin by ELISA. In this assay binding of KnotBody Fabs (at 0.5 µg/ml) to biotinylated trypsin (5 µg/ml immobilised on streptavidin coated Maxisorp™ plates) was detected using a mouse anti-CH1 antibody (Hybridoma Reagent Laboratories) followed by a europium conjugated anti-mouse antibody (Perkin Elmer, Cat. No. AD0124). The trypsin binding capability of KB_A07 and KB_A12 KnotBodies were greatly diminished when the short selected linkers were replaced with long and flexible linkers (FIG. 22).

B1: KB_A05: EETI-II knottin fused into VL CDR2, D1A12 VH; trypsin binder (antibody)
heavy: EVQLVESGGGLVRPGGSLRLSCAASGFTFSSYAMSWVRQAPGKGLEWVSAISGSGGSTYYADSVKGRFTISRDNTKNSLYLQMTSLRADDTAFYYCVDFGPGYGTGWFDYWGPGTLVTVSSASTKGPSVFPLAPSSKSTSGGTAALGCLVKDYFPEPVTVSWNSGALTSGVHTFPAVLQSSGLYSLSSVVTVPSSSLGTQTYICNVNHKPSNTKVDKKVEPKSC
light: QSVLTQPPSVSEAPRQRVTITCSGSSSNIGNNAVNWYQQLPGKAPKLLIYAADKCPRILMRCKQDSDCLAGCVCGPNGFCGGGSGIPERFSGSKSGTSASLAISGLRSEDEADYYCATWDDNLNGVVFGGGTKLTVLGQPAAAPSVTLFPPSSEELQANKATLVCLISDFYPGAVTVAWKADSSPVKAGVETTTPSKQSNNKYAASSYLSLTPEQWKSHKSYSCQVTHEGSTVEKTVAPTECS
modifications: KB_A05 Heavy chain; KB_A05 Light chain
Take B1: the “% reduction in binding signal” value in assay [1] (GlyAla mutant (Pro3, Arg4 of EETI-II substituted) versus the clone, monoclonal phage) worked out at 100%. In addition, in assay [1] (monoclonal phage supernatant, biotinylated trypsin on neutravidin plates), the “Tryspin binding signal (FU)” value turned out to be 121458 FU. Further, the “TRF signal for 0.6 ug/mL Fab” value in assay [2] (Fab 0.6 ug/mL) turned out to be 46706. The “TRF signal for 2.4 ug/mL Fab” value in assay [2] (Fab 2.4 ug/mL) came to 65386. The “TRF signal for 10 ug/mL Fab” value in assay [2] (Fab 10 ug/mL) is recorded as 217918.
